# B1: mAb O1 (antibody, V domains shown)
# VH: QVQLQQSGPELVKPGALVKISCKASGYTFTSYDINWVKQRPGQGLEWIGWIYPGDGSTKYNEKFKGKATLTADKSSSTAYMQLSSLTSENSAVYFCARGARFYWYFDVWGAGTTVTVSS
# VL: DVQITQSPSYLAASPGETITINCRASKSISKYLAWYQEKPGKTNKLLIYSGSTLQSGIPSRFSGSGSGTDFTLTISSLEPEDFAMYYCQQHNEYPYTFGGGTKLEIKR
# notes: Mouse IgM kappa; Entries may include the leader peptide; The hybridoma also makes the MOPC21 kappa chain; also called 01
# B2: monoclonal antibody SCH94.03 (antibody, V domains shown)
# VH: QVQLQQPGTELVKPGASVKLSCKASGYTFTSYWMHWVKQRPGQGLEWIGNINPSNGGTNYNEKFKSKATLTVDKSSSTAYMQLSSLTSEDSAVYYCARRAPYYGSRNFDYWGQGTTLTVSS
# VL: DIQMTQTTSSLSASLGDRVTISCRASQDISNYLNWYQQKPDGTVKLLIYYTSRLHSGVPSRFSGSGSGTDYSLTISNLEQEDIATYFCQQGNTLPWTFGGGTKLEIKR
# B3: mAb A2B5 (antibody, mouse IgM, V domains shown)
# VH: EVKLVESGGGLVQPGGSLRLSCATSGFTFSDFYMEWVRQPPGKRLEWIAASRNKANDYTTEYSASVKGRFIVSRDTSQSILYLQMNALRAEDTAIYYCARDARQLGLPAWFAYWGQGTLVTVSA
# VL: QIVLTQSPAIMSASPGEKVTISCSASSSVSYMYWYQQKPGSSPKPWIYRTSNLASGVPARFSGSGSGTSYSLTISSMEAEDAATYYCQQYHSYPLTFGAGTKLELKR
# notes: Mouse IgM kappa
# How the values were obtained:
# human RBC spectrin [1] = molecular target: T1, human RBC spectrin (human, UniProt P02549 1-2419; P11277 2-2137); assay: direct ELISA, mAb at 2 µg/ml
# T1 construct: Bought from Sigma; also called human erythrocyte spectrin
# T1 sequence (P02549 whole entry, chain 1 of 2): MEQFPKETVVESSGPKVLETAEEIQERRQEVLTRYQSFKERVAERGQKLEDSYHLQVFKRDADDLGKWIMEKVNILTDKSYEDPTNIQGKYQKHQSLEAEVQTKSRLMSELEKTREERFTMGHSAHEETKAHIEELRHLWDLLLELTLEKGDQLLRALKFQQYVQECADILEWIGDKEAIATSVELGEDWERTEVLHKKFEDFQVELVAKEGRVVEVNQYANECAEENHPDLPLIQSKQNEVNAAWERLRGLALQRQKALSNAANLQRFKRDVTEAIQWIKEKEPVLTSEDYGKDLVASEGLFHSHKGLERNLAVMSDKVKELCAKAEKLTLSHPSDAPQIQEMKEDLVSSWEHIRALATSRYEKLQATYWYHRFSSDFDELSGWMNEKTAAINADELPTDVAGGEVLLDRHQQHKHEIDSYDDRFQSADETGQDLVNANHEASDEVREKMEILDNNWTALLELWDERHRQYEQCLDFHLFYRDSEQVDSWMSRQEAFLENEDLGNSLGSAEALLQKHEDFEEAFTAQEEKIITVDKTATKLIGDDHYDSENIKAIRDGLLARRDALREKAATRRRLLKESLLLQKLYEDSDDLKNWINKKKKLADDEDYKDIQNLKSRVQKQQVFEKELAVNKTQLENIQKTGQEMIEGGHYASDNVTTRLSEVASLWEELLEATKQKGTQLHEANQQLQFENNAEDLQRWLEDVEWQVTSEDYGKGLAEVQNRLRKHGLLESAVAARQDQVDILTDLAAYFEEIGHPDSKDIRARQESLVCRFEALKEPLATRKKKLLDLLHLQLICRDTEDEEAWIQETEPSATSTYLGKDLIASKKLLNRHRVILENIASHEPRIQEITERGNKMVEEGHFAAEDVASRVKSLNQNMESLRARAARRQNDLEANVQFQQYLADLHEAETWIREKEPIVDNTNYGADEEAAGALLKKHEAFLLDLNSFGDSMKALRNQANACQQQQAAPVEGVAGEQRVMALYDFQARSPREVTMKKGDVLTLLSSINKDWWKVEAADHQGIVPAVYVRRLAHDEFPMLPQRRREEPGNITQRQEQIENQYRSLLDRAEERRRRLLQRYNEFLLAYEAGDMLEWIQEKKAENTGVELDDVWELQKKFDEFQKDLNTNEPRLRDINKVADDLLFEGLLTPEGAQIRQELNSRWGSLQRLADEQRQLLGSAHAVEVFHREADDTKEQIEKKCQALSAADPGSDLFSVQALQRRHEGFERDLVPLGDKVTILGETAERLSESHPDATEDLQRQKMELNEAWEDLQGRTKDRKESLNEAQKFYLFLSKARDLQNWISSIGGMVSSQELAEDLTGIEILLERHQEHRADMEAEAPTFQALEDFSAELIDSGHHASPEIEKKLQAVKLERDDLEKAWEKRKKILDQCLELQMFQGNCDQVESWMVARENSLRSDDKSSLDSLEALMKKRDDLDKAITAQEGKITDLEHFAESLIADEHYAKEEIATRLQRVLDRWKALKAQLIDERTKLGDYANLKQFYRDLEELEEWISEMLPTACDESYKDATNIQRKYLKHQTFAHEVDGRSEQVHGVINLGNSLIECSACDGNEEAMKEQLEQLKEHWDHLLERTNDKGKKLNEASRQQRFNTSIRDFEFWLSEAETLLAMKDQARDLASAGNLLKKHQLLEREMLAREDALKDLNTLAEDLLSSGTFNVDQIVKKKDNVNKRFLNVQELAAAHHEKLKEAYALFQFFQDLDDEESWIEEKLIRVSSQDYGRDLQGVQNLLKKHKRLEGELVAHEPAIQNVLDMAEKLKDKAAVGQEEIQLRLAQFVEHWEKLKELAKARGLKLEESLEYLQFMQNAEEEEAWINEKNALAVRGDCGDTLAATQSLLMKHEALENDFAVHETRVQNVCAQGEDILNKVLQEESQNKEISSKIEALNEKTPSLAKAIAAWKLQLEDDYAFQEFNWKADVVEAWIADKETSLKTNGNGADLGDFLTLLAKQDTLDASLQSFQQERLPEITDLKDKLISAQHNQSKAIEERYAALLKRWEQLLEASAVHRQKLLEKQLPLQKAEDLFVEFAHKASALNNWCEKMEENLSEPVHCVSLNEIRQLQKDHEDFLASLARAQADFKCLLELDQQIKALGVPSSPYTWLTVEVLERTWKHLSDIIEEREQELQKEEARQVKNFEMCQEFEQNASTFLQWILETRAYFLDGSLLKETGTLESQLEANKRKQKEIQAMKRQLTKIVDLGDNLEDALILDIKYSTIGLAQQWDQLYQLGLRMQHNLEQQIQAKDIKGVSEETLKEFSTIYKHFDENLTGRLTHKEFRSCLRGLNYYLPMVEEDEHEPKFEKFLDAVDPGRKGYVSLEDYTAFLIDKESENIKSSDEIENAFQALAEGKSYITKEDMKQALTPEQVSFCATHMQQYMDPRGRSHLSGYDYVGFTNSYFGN
# T1 sequence (P11277 2-2137, chain 2 of 2): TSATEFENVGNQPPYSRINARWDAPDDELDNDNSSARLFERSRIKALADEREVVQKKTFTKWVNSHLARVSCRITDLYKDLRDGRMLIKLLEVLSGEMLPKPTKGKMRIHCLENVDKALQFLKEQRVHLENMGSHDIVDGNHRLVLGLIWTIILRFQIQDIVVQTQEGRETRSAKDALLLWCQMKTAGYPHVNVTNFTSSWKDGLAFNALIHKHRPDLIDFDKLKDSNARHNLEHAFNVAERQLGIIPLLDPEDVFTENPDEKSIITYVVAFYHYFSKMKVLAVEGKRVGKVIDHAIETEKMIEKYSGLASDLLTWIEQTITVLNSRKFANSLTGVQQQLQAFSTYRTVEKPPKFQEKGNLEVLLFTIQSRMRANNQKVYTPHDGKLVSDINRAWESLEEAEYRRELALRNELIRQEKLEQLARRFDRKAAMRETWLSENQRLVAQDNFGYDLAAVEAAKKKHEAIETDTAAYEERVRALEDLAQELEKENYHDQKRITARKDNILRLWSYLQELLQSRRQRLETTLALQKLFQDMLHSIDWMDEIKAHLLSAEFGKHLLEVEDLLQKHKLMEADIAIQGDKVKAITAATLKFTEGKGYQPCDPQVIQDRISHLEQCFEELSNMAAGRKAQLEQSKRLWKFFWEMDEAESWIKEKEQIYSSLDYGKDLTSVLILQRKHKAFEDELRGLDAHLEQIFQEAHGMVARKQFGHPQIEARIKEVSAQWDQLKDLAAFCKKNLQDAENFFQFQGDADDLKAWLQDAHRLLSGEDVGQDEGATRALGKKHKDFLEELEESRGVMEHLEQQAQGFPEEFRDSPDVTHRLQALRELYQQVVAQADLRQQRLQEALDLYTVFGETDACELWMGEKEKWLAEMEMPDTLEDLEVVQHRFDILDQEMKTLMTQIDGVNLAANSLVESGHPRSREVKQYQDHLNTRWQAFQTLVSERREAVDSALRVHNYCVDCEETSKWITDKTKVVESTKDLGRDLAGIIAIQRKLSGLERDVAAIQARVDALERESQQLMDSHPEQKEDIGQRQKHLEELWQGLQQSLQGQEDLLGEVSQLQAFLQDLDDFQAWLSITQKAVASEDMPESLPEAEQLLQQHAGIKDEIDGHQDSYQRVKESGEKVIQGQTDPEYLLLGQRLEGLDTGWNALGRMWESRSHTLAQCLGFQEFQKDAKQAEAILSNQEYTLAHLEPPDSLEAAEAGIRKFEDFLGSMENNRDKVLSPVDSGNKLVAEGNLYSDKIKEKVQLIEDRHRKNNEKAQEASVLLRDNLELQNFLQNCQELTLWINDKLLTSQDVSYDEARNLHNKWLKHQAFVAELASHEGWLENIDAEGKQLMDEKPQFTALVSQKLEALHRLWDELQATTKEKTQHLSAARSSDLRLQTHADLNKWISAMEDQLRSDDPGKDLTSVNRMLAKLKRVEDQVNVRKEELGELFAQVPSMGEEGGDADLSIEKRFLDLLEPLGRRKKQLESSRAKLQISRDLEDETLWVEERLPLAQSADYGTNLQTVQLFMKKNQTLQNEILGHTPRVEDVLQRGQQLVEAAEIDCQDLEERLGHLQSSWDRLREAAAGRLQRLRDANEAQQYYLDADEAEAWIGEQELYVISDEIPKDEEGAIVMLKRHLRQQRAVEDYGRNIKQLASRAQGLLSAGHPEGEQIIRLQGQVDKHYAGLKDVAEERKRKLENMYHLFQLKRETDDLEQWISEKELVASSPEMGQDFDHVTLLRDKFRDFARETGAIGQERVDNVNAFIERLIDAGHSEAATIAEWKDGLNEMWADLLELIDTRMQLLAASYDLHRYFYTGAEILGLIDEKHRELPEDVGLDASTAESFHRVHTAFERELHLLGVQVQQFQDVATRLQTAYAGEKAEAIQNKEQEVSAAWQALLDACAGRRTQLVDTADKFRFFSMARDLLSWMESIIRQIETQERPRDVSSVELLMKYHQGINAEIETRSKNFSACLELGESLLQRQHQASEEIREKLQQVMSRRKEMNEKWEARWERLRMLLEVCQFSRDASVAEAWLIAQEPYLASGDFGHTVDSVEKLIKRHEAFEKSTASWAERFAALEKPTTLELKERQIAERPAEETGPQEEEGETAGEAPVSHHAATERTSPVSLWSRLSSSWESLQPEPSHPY
# Description: (§1) Human RBC spectrin, bovine myosin (heavy chain), mouse albumin, mouse hemoglobin, mouse transferrin, hen egg lysozyme, rabbit actin, rabbit myelin basic protein, and keyhole limpet hemocyanin (KLH) were purchased from Sigma. Proteins were tested for purity by SDS-polyacrylamide gel electrophoresis. […] Protein antigens were used at 5 μg/ml, and hapten was used at 2 μM. The proteins and hapten-BSA antigens were coated onto polystyrene or polyvinylchloride microtiter plates in 0.1 M carbonate buffer, pH 9.5, for 18 hours at 4° C. Coated plates were blocked with PBS containing 5% nonfat dry mild and 0.05% Tween 20 for 2 hours at room temperature, and incubated with mAbs diluted in blocking buffer (2 μg/ml) for 4 hours at room temperature. […] Bound IgM was detected with biotinylated goat anti-mouse IgM (p chain specific; Jackson Immunoresearch, West Grove, Pa.) followed by alkaline phosphatase conjugated to streptavidin, with p-nitrophenylphosphate as the chromogenic substrate. Absorbance was determined at 405 nm.
# [2] = molecular target: T2, bovine serum albumin (BSA) (bovine, UniProt P02769 25-607); assay: solid-phase ELISA
# T2 construct: Carrier alone, without hapten; also called carrier protein BSA
# mouse transferrin = molecular target: T3, mouse transferrin (mouse, UniProt Q921I1 20-697); assay: direct ELISA, antigen coated at 5 µg/ml
# T3 construct: Bought from Sigma
# Description: as §1
# mouse albumin = molecular target: T4, mouse albumin (mouse, UniProt P07724 25-608); assay: direct ELISA, antigen coated at 5 µg/ml
# T4 construct: Bought from Sigma
# Description: as §1
# [3] = molecular target: T5, rabbit myelin basic protein (rabbit, UniProt P25274 1-168); assay: direct ELISA, antigen coated at 5 µg/ml
# T5 construct: Bought from Sigma; also called rabbit MBP
# Description: as §1
# human RBC spectrin [4] = molecular target: T1, human RBC spectrin; assay: direct ELISA, antigen coated at 5 µg/ml
# Description: as §1
# mouse hemoglobin = molecular target: T6, mouse hemoglobin (mouse, UniProt P01942 2-142; P02088 2-147); assay: direct ELISA, antigen coated at 5 µg/ml
# T6 construct: Bought from Sigma; also called Mo Hb
# T6 sequence (P01942 2-142 limits assumed, chain 1 of 2): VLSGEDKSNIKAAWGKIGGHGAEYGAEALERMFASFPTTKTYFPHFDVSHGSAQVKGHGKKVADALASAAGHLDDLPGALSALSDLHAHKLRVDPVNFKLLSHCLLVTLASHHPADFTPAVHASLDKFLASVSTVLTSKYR
# T6 sequence (P02088 2-147 limits assumed, chain 2 of 2): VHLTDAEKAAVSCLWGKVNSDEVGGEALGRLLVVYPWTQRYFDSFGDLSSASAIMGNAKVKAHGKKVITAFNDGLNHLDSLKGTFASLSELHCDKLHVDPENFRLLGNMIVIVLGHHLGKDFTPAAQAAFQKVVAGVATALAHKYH
# Description: as §1
# hen egg lysozyme = molecular target: T7, hen egg lysozyme (hen (chicken), UniProt P00698 19-147); assay: direct ELISA, antigen coated at 5 µg/ml
# T7 construct: Bought from Sigma; also called HEL
# T7 sequence (P00698 19-147): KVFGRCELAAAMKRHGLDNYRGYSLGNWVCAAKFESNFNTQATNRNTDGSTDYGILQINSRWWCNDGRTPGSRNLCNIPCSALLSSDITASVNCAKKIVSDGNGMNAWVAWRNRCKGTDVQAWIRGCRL
# Description: as §1
binder,measurement,setting,value
B1,binding result,human RBC spectrin [1],binds
B2,binding result,[2],no binding
B3,binding result,mouse transferrin,no binding (tested: mAbs at 2 µg/ml)
same,binding result,mouse albumin,no binding (tested: mAbs at 2 µg/ml)
same,binding result,[3],no binding (tested: mAbs at 2 µg/ml)
same,binding result,human RBC spectrin [4],no binding (tested: mAbs at 2 µg/ml)
same,binding result,mouse hemoglobin,no binding (tested: mAbs at 2 µg/ml)
same,binding result,hen egg lysozyme,no binding (tested: mAbs at 2 µg/ml)
